This note sets out measurements from patent US20050123549A1 (IMMUNOGEN, published 2005).

Assay [1] concerns the target T1, Muc1 mucin carrying the CA6 sialoglycotope (human, UniProt P15941 24-1255, sialylated O-linked carbohydrate carrying the CA6 epitope; positions not stated).
T1 construct: whole, on cells; Target of DS6 on CA6-positive human cell lines (flow cytometry) and in their lysates (dot blots, immunoprecipitation); also called CA6 antigen; DS6 antigen
The experiment in a line: flow cytometry on HPAF-II cells, apparent Kd. For orientation: Flow cytometry measures light scatter and fluorescence of single cells or particles in a stream.

Assay [2] deals with T1, Muc1 mucin carrying the CA6 …. The assay is described as follows: flow cytometry on ZR-75-1 cells, apparent Kd.
The target is the same in assay [3]. The experiment in a line: flow cytometry on T-47D cells, FITC anti-mouse IgG. The protocol:
The fluorescence of cell lines incubated with the DS6 primary antibody and FITC conjugated anti-mouse IgG(H+L) secondary antibodies was measured by flow cytometry.
(§1) Cells ([…]) were incubated, on ice for 3-4 h, with serially diluted concentrations of the DS6 antibody prepared in FACS buffer (2% goat serum, RPMI) into 96-well plates. The cells were spun down in a table top centrifuge at 1500 rpm for 5 min at 4° C. After removing the media, the wells were then refilled with 150 μl of FACS buffer. The wash step was then repeated. FITC-labeled goat anti-mouse IgG (Jackson Immunoresearch) was diluted 1:100 to FACS buffer and incubated with the cells for 1 h on ice. The plate was covered in foil to prevent photobleaching of the signal. After two washes, the cells were fixed with 1% formaldehyde and analyzed on a flow cytometer.

For assay [4] the target is unchanged. The experiment in a line: flow cytometry on CaOV3 cells, apparent Kd.
Assay [5] has the same target. The experiment in a line: cell-based or functional assay.
For assay [6] the target is unchanged. The experiment in a line: flow cytometry on KB cells, apparent Kd.
Assay [7] shares this target. The assay is described as follows: flow cytometry on Caov-4 cells, apparent Kd. Here is the method:
as §1

The target is the same in assay [8]. The assay is described as follows: flow cytometry on BT-483 cells, apparent Kd. Here is the method:
as §1

For assay [9] the target is unchanged. The assay is described as follows: flow cytometry on HPAF-II cells, apparent Kd. Here is the method: Human cell lines were obtained from the American Type Culture Collection (ATCC) with the exception of OVCAR5 (Kearse et al., Int. J. Cancer 88(6):866-872 (2000)), OVCAR8 and IGROV1 cells (M. Seiden, Massachusetts General Hospital). All cells were grown in RPMI 1640 supplemented with 4 mM L-glutamine, 50 U/ml penicillin, 50 μg/ml streptomycin (Cambrex Bio Science, Rockland, Me.) and 10% v/v fetal bovine serum (Atlas Biologicals, Fort Collins, Colo.), referred hereafter as culture media. Cells were maintained in a 37° C., 5% CO₂ humidified incubator.
as §1
The source holds these as a separate data set.

Assay [10] has the same target. The experiment in a line: flow cytometry on Hs766T cells, apparent Kd.

B1: murine DS6 anti-CA6 monoclonal antibody (antibody, IgG1, V domains shown)
VH: QAYLQQSGAELVRSGASVKMSCKASGYTFTSYNMHWVKQTPGQGLEWIGYIYPGNGATNYNQKFKGKATLTADPSSSTAYMQISSLTSEDSAVYFCARGDSVPFAYWGQGTLVTVSA
VL: QIVLTQSPAIMSASPGEKVTITCSAHSSVSFMHWFQQKPGTSPKLWIYSTSSLASGVPARFGGSGSGTSYSLTISRMEAEDAATYYCQQRSSFPLTFGAGTKLELKR
notes: Whole murine monoclonal IgG from the DS6 hybridoma (ATCC PTA-4449); the 3' heavy chain cloning primer was BamIgG1 and the light chain primer was kappa; also called DS6 antibody; muDS6
As for B1, the Kd in assay [1] amounted to 2.81 nM; in assay [2], 4.3 nM; in assay [3] it was 2.59 nM; in [4], 5.48 nM; in assay [6], 0.111 nM; in assay [7], 4.04 nM. In addition, the results for the Kd in assay [8], in [9] and in [10] were 13.7 nM, 2.81 nM and 2.32 nM, respectively. For the same molecule, in [5], the “indirect cell viability assay, DS6 with anti-mouse IgG (H+L) DM1 conjugate, Caov-3 cells, IC50” value amounted to 0.425 nM.
